Reference: the supplement of paper PMC10567573

B1: ARL6IP1 (parent)
chain: YLDPSVLSGVSCFVMFLCLADYLV

Variants of: B1
Experiment: protein stability index of a GFP-peptide fusion (GPS, HEK-293T) (PSI 1-6); higher = more stable
Settings: c terminus: a fixed tail appended
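Further: lentivirally expressed fusions sorted by FACS into six bins by GFP to DsRed ratio, PSI derived from sequencing read proportions per bin multiplied by bin number.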

| Variant | protein stability index |
| --- | --- |
| YLDPSVLSGVSCCVMFLCLADYLV [F13C] | 2.92 |
| YLDPSVLSYVSCFVMFLCLADYLV [G9Y] | 2.81 |
| YLDPSVLSLVSCFVMFLCLADYLV [G9L] | 3.4 |
| YLDPSVLSFVSCFVMFLCLADYLV [G9F] | 3.27 |
| YLDPSVLSHVSCFVMFLCLADYLV [G9H] | 3.27 |
| YLDPSVLSQVSCFVMFLCLADYLV [G9Q] | 3.72 |
| YLDPSVLSNVSCFVMFLCLADYLV [G9N] | 4.26 |
| YLDPSVLSVVSCFVMFLCLADYLV [G9V] | 3.3 |
| YLDPSVLSRVSCFVMFLCLADYLV [G9R] | 2.5 |
| YLDPSVLSKVSCFVMFLCLADYLV [G9K] | 2.49 |
| YLDPSVLSAVSCFVMFLCLADYLV [G9A] | 3.74 |
| YLDPSVLSGVSCFVMRLCLADYLV [F16R] | 3.63 |
| YLDPSVLSGVSCFVMPLCLADYLV [F16P] | 2.64 |
| YLDPSVLSGVSCFVMLLCLADYLV [F16L] | 2.62 |
| YLDPSVLSGVSCFVMGLCLADYLV [F16G] | 2.14 |
| YLDPSVLSGVSCFVMALCLADYLV [F16A] | 1.99 |
| YLDPSVLSGVSCFVMKLCLADYLV [F16K] | 1.74 |
| YLDPSVLSGVSCFVMVLCLADYLV [F16V] | 3.72 |
| YLDPSVLSGVSCFVMFLCLAAYLV [D21A] | 2.71 |
| YLDPSVLSGVSCFVMFLCLATYLV [D21T] | 3.76 |
| YLDPSVLSGVSCFVMFLCLAHYLV [D21H] | 2.6 |
| YLDPSVLSGVSCFVMFLCLAIYLV [D21I] | 3.5 |
| YLDPSVLSGVSCFVMFLCLAGYLV [D21G] | 3.14 |
| YLDPSVLSGVSCFVMFLCLAKYLV [D21K] | 1.14 |

| Variant | protein stability index |
| --- | --- |
| YLDPSVLSGVSCFVMFLCLANYLV [D21N] | 2.7 |
| YLDPSVLSGVSCFVMFLCLAQYLV [D21Q] | 2.58 |
| YHDPSVLSGVSCFVMFLCLADYLV [L2H] | 2.67 |
| YRDPSVLSGVSCFVMFLCLADYLV [L2R] | 2.5 |
| YEDPSVLSGVSCFVMFLCLADYLV [L2E] | 3.04 |
| YFDPSVLSGVSCFVMFLCLADYLV [L2F] | 3 |
| YNDPSVLSGVSCFVMFLCLADYLV [L2N] | 2.5 |
| YDDPSVLSGVSCFVMFLCLADYLV [L2D] | 3.95 |
| YQDPSVLSGVSCFVMFLCLADYLV [L2Q] | 2.09 |
| YCDPSVLSGVSCFVMFLCLADYLV [L2C] | 2.99 |
| YLDPSVLSGVSCFVMFLCLVDYLV [A20V] | 1.63 |
| YLDPSVLSGVSCFVMFLCLWDYLV [A20W] | 2.47 |
| YLDPSVLSGVSCFVMFLCLTDYLV [A20T] | 4.15 |
| YLDPSVLSGVSCFVMFLCLFDYLV [A20F] | 2.87 |
| YLDPSVLSGVSCFVMFLCLYDYLV [A20Y] | 3.24 |
| YLDPSVLSGVSCFVMFLCLHDYLV [A20H] | 2.64 |
| YLDPSVLSGVSCFVMFLCLKDYLV [A20K] | 3.71 |
| YLDPSVLSGVSCFVMFLCLCDYLV [A20C] | 3.26 |
| YLDPSVLSGVSCFVSFLCLADYLV [M15S] | 2.79 |
| YLDPSVLSGVSCFVDFLCLADYLV [M15D] | 2.69 |
| YLDPSVLSGVSCFVNFLCLADYLV [M15N] | 2.88 |
| YLDPSVLSGVSCFVGFLCLADYLV [M15G] | 4.04 |
| YLDPSVLSGVSCFVLFLCLADYLV [M15L] | 2.76 |
| YLDPSVLSGVSCFVTFLCLADYLV [M15T] | 3.04 |

| Variant | protein stability index |
| --- | --- |
| YLDPSVLSGVSCFVIFLCLADYLV [M15I] | 4.76 |
| YLDPSVLSGVSCFVCFLCLADYLV [M15C] | 3.3 |
| YLDPSVLSGVSCFVFFLCLADYLV [M15F] | 2.3 |
| YLRPSVLSGVSCFVMFLCLADYLV [D3R] | 3.64 |
| YLPPSVLSGVSCFVMFLCLADYLV [D3P] | 3.06 |
| YLYPSVLSGVSCFVMFLCLADYLV [D3Y] | 2.54 |
| YLHPSVLSGVSCFVMFLCLADYLV [D3H] | 1.69 |
| YLVPSVLSGVSCFVMFLCLADYLV [D3V] | 2.91 |
| YLAPSVLSGVSCFVMFLCLADYLV [D3A] | 5.08 |
| YLEPSVLSGVSCFVMFLCLADYLV [D3E] | 1.94 |
| YLDPSVLSGVHCFVMFLCLADYLV [S11H] | 2.62 |
| YLDPSVLSGVCCFVMFLCLADYLV [S11C] | 3.23 |
| YLDPSVLSGVFCFVMFLCLADYLV [S11F] | 2.24 |
| YLDPSVLSGVYCFVMFLCLADYLV [S11Y] | 3.78 |
| YLDPSVLSGVPCFVMFLCLADYLV [S11P] | 3.52 |
| YLDPSVNSGVSCFVMFLCLADYLV [L7N] | 2.74 |
| YLDPSVVSGVSCFVMFLCLADYLV [L7V] | 3.69 |
| YLDPSVPSGVSCFVMFLCLADYLV [L7P] | 2.4 |
| YLDPSVSSGVSCFVMFLCLADYLV [L7S] | 3.62 |
| YLDPSVTSGVSCFVMFLCLADYLV [L7T] | 2.8 |
| YLDPSVMSGVSCFVMFLCLADYLV [L7M] | 2.98 |
| YLDPSVQSGVSCFVMFLCLADYLV [L7Q] | 4 |
| YLDPSVHSGVSCFVMFLCLADYLV [L7H] | 3.82 |
| YLDPSILSGVSCFVMFLCLADYLV [V6I] | 3.23 |

| Variant | protein stability index |
| --- | --- |
| YLDPSDLSGVSCFVMFLCLADYLV [V6D] | 2.36 |
| YLDPSKLSGVSCFVMFLCLADYLV [V6K] | 2.51 |
| YLDPSRLSGVSCFVMFLCLADYLV [V6R] | 2.76 |
| YLDPSTLSGVSCFVMFLCLADYLV [V6T] | 2.39 |
| YLDPSALSGVSCFVMFLCLADYLV [V6A] | 1.44 |
| YLDPSSLSGVSCFVMFLCLADYLV [V6S] | 2.79 |
| YLDPSNLSGVSCFVMFLCLADYLV [V6N] | 3.08 |
| YLDPSQLSGVSCFVMFLCLADYLV [V6Q] | 2.64 |
| YLDPSYLSGVSCFVMFLCLADYLV [V6Y] | 2.66 |
| YLDPMVLSGVSCFVMFLCLADYLV [S5M] | 3.03 |
| YLDPDVLSGVSCFVMFLCLADYLV [S5D] | 3.07 |
| YLDPRVLSGVSCFVMFLCLADYLV [S5R] | 3.56 |
| YLDPIVLSGVSCFVMFLCLADYLV [S5I] | 3.61 |
| YLDPHVLSGVSCFVMFLCLADYLV [S5H] | 3.5 |
| YLDPKVLSGVSCFVMFLCLADYLV [S5K] | 3.47 |
| YLDPLVLSGVSCFVMFLCLADYLV [S5L] | 3.09 |
| YLDPSVLSGVSCFVMFLCLADYLM [V24M] | 3.77 |
| YLDPSVLSGVSCFVMFLCLADYLS [V24S] | 2.53 |
| YLDPSVLSGVSCFVMFLCLADYLA [V24A] | 2.78 |
| YLDPSVLSGVSCFVMFLCLADYLF [V24F] | 2.97 |
| YLDPSVLSGVSCFVMFLCLADYLY [V24Y] | 2.16 |
| YLDPSVLSGVSCFVMFLCLADYLL [V24L] | 3.97 |
